Test results as given in PMC6828549 (Nature structural & molecular biology, 2019).

Target: T1, His6-Nxf2 (full length), recombinant from insect cells (Drosophila melanogaster, UniProt Q9VV73 1-841)
T1 sequence: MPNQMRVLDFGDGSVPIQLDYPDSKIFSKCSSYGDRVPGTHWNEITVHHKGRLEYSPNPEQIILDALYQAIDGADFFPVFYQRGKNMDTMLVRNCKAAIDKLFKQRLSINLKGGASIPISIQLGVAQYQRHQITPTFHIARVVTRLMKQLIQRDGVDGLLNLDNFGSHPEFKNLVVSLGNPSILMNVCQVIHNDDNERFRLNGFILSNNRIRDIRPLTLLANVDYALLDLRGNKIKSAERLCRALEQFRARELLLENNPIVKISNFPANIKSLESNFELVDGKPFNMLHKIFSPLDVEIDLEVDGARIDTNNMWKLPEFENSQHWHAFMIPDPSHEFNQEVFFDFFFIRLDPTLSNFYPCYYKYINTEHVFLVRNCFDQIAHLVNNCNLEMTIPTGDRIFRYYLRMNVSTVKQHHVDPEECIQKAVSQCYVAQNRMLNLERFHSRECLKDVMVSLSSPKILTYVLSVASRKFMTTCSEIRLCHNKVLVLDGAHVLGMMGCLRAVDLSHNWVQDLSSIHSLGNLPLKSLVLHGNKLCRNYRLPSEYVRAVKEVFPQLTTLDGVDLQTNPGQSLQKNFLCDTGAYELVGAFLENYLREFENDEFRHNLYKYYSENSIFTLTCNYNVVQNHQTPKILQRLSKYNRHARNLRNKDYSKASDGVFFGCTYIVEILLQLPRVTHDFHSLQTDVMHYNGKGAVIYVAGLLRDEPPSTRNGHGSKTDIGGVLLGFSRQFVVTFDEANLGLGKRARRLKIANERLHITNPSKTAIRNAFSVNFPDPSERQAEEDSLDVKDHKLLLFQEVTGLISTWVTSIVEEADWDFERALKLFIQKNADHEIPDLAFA
Experiment: pull-down + SEC

binding result: binds
B1: Strep-tagged Panoramix fragment (263–446) (domain or fragment)
chain: ASSQNESSKERKLRDTELDYVPVRPDEHFIRPIKFSNLIERRPPQVEFNTVNLSKADKRSLAVARAELVLEQIQQKANKEEPPEFHMVDTICKLPVNESFRNQDCFENPSPICNNMNVVYKFNSTPGTRIDLSKWGLETVPEATKRLLRLLGIDVARLKELQSTVKPSQRILKLKKEQLEQGLA
